Assay results reported in PMC4263763, “Crystal Structure of Calcium Binding Protein-5 from Entamoeba histolytica and Its Involvement in Initiation of Phagocytosis of Human Erythrocytes” (PLoS Pathogens, 2014).
Several values for one entry are separate records, joined by “and”; a condition that tells them apart may be missing. Identical values can stand only once. Entries after “also recorded” stand apart in the source; their conditions may differ.

What was measured:
EhCaBP5 [1] = experiment: SPR binding of native and mutated IQ motif peptides (analyte) to immobilized EhCaBP5 (model validation); parameters: species or system Entamoeba histolytica; conditions: peptide as analyte, 25°C
Procedure: To validate EhCaBP5-IQ motif complex model, we obtained commercially synthesized two mutated Myosin 1B IQ motif peptide IQ-M1 A*A*KAWKGYRNRKR (where IQ is mutated to AA) and IQ-M2 IQKAWKGYD*ND*KD* (Where R is mutated to D). The EhCaBP5 was immobilized on sensor chip up to 500 resonance units and native myosin 1B IQ motif peptide and mutated IQ motif peptide were passed as analyte at concentration of […]. The data were recorded at 25°C and data analysis was performed using Biacore […] SPR Kinetics evaluation software.

[2] = biological target: IQ motif peptide of myosin 1B (native) (Entamoeba histolytica); experiment: SPR
[3] = biological target: Entamoeba histolytica calcium binding protein-5 (EhCaBP5), recombinant (Entamoeba histolytica); experiment: SPR; EhCaBP5 immobilised on sensor chip up to 500 RU; native and mutated IQ motif peptides as analyte at 25, 50, 75, 100 and 125 mM (so in the source); 25°C
EhCaBP5 [4] = experiment: SPR binding of EhCaBP5 (analyte) to immobilized myosin IQ motif peptides; parameters: species or system Entamoeba histolytica; conditions: Biacore T200, peptide immobilized (2000 RU, CM4 chip), EhCaBP5 as analyte, pH 7.4
Description: The E. histolytica genome codes for two myosin, myosin I (accession number EAL48894) and myosin II (accession number EAL51645). Myosin I has one IQ motif and myosin II has two IQ motifs. To check the interaction between EhCaBP5 and myosin IQ motifs, we commercially synthesized (obtained) peptides of IQ motif of myosin 1B (unconventional myosin) (IQKAWKGYRNRKR) and second IQ motif of heavy chain myosin (myosin II) ([…]), which is expected to bind to ELC. For the binding study we used Biacore T200 apparatus (Biacore, GE Healthcare) at National Institute of Plant and Genome Research New Delhi, India. A total of 2000 resonance units (RU) of peptides were immobilized on a research grade S series CM4 sensor chip in 10 mM sodium acetate, pH 5.0 according to the manufacturer's amine coupling kit. After peptide immobilization, the surface was blocked with 1 M ethanolamine at pH 8.5, followed by regeneration using 50 mM NaOH. The interaction experiments were performed using buffer containing 10 mM HEPES pH 7.4, 150 mM NaCl and 0.2 mM Calcium chloride. We also performed interaction experiment in absence of Ca^2+ and supplementing 5 mM of EGTA in the above buffer. […] The association kinetics for EhCaBP5 was monitored for 300 seconds and dissociation was monitored for the next 300 seconds.

F-actin = experiment: Co-sedimentation assay with F-actin; type: binding; conditions: in vitro, pellet fraction containing F-actin
myosin 1B = experiment: Co-immunoprecipitation of myosin 1B from total cell lysate; type: binding, Entamoeba histolytica; conditions: immobilized anti-EhCaBP5 antibody, 800 µg E. histolytica lysate, 6 h at 4°C, with EGTA; western blot
Procedure: Immunoprecipitation was carried out as described previously. Briefly, CNBr-activated Sepharose-4B beads (Pharmacia) were conjugated with anti-EhCaBP5 antibody. Crude immunoglobulins were collected from the immunized serum using 40% ammonium sulphate and subsequently dialysed in coupling buffer (bicarbonate buffer). Usually, 10 mg immunoglobulin protein was added per gram of CNBr-activated Sepharose-4B beads. The resin was mixed gently for 18 h at 4°C. The conjugated Sepharose beads were incubated with E. histolytica lysate for 6 h at 4°C. The beads were then washed thrice with wash buffer (10 mM Tris-Cl (pH 7.5), 150 mM NaCl, 1 mM imidazole, 1 mM magnesium acetate, 2 mM β-ME and protease inhibitor cocktail). Ca^2+ and EGTA were maintained throughout the process as required. After incubation the beads were washed sequentially with 60 mM Tris-Cl (pH 6.8), 100 mM NaCl and with 60 mM Tris-Cl (pH 6.8). The pellet was suspended in 2× SDS polyacrylamide gel electrophoresis (PAGE) buffer and boiled for 5 min followed by centrifugation for 5 min. The proteins were then analysed by western blotting.

[5] = ITC; ref [17]; cited from earlier work
Description: Overall, the molecule is divided in two globular lobes, where each lobe has four alpha helices connected by loops. The N-terminal lobe has one EF-hand motif with a calcium ion bound to the loop between two helices. The C-terminal lobe has two small anti-parallel beta strands along with four loops (Fig. 1A). Signature residues of an additional EF-hand motif are found in the C-terminal lobe (residues87 to 98). In the crystal structure these residues form a loop between two helices similar to that of a typical EF-hand but density for Ca^2+ is not observed. Consistent with the crystals structure, ...

Molecule: A*A*KAWKGYRNRKR [IQ-M1, mutated Myosin 1B IQ motif peptide IQ-M1 (where IQ is mutated to AA)]
- change in Kd versus native peptide (in words) (EhCaBP5 [1]): could not find any significant change in Kd value

Molecule: Entamoeba histolytica calcium binding protein-5 (EhCaBP5), recombinant (natural protein)
- Kd [2]: 2.4 nM and 5.4 nM

Molecule: IQ motif peptide of myosin 1B (native)
- Kd [3]: 0.64 nM

Molecule: LQACARAFAARKHFS [myosin II IQ motif]
- binding to EhCaBP5 (in words) (EhCaBP5 [4]): does not bind

B1: EhCaBP5: calcium binding protein 5 from E. histolytica (accession number EAL46660) (protein)
chain: MQKHNEDLKESFLLFDGDGDGYLTLNEFESLVRVLGVVMETSAIASTYNSNSKVRGMSYELFTSCFSQLKTKSFNKDEIKTAINVLDKDKKGFIPAIELRRILSTIGDNMEQKEITDLFTFMGIDEQGVVKVDDFINQLMTVFK
- co-sedimentation with / binding to F-actin (in words) (F-actin): No significant amount of EhCaBP5 was observed in the pellet fraction containing F-actin; also recorded: does not bind F-actin
- co-precipitation of myosin 1B (in words) (myosin 1B): precipitated myosin 1B along with EhCaBP5 even in the presence of EGTA
- number of Ca^2+ binding sites [5]: one
